Publication PMC4687643

Legend:
[1] = target: GST-Actin binding protein 1 (Abp1) SH3 domain (mouse) (UniProt Q62418)
[2] = target: GST-Cdc42 interacting protein 4 (CIP4) SH3 domain (human) (UniProt Q15642)
[3] = target: GST-Formin Binding Protein 17 (FBP17) SH3 domain (human) (UniProt Q96RU3)
[4] = target: GST-amphiphysin I SH3 domain (human) (UniProt P49418)
[5] = target: GST-amphiphysin II SH3 domain (human) (UniProt O00499)
[6] = target: GST-cortactin SH3 domain (mouse) (UniProt Q60598)
[7] = target: GST-endophilin I SH3 domain (mouse) (UniProt Q62420)
Chain of GST-endophilin I SH3 domain (mouse) (Q62420 290-349): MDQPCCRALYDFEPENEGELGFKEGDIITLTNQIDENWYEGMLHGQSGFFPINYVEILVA

[8] = target: GST-intersectin I SH3A domain (Xenopus laevis)
[9] = target: GST-intersectin I SH3C domain (Xenopus laevis)
[10] = target: GST-intersectin I SH3E domain (Xenopus laevis)
[11] = target: GST-p85 SH3 domain (bovine) (UniProt P23727)
[12] = target: GST-sorting-nexin 9 (SNX9) SH3 domain (human) (UniProt Q9Y5X1)
Chain of GST-sorting-nexin 9 (SNX9) SH3 domain (human) (Q9Y5X1 1-62): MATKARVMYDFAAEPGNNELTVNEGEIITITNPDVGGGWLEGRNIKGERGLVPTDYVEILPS

[13] = target: GST-syndapin I SH3 domain (mouse) (UniProt Q61644)
Chain of GST-syndapin I SH3 domain (mouse) (Q61644 382-441): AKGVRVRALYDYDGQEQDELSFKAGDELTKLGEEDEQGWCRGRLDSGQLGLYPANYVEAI

[14] = target: GST-Actin binding protein 1 (Abp1) SH3 domain (mouse) (UniProt Q62418); remark: listed apart in the source
[15] = target: GST-Cdc42 interacting protein 4 (CIP4) SH3 domain (human) (UniProt Q15642); remark: listed apart in the source
[16] = target: GST-Formin Binding Protein 17 (FBP17) SH3 domain (human) (UniProt Q96RU3); remark: listed apart in the source
[17] = target: GST-amphiphysin I SH3 domain (human) (UniProt P49418); remark: listed apart in the source
[18] = target: GST-amphiphysin II SH3 domain (human) (UniProt O00499); remark: listed apart in the source
[19] = target: GST-cortactin SH3 domain (mouse) (UniProt Q60598); remark: listed apart in the source
[20] = target: GST-endophilin I SH3 domain (mouse) (UniProt Q62420); remark: listed apart in the source
[21] = target: GST-intersectin I SH3C domain (Xenopus laevis); remark: listed apart in the source
[22] = target: GST-intersectin I SH3E domain (Xenopus laevis); remark: listed apart in the source
[23] = target: GST-p85 SH3 domain (bovine) (UniProt P23727); remark: listed apart in the source
[24] = target: GST-syndapin I SH3 domain (mouse) (UniProt Q61644); remark: listed apart in the source

Chain of GST-Formin Binding Protein 17 (FBP17) SH3 domain (human) (Q96RU3 550-611): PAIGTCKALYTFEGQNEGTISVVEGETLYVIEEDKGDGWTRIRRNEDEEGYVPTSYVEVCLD
Chain of GST-Actin binding protein 1 (Abp1) SH3 domain (mouse) (Q62418 377-436): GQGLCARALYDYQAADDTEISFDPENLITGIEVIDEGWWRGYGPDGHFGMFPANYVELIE
Chain of GST-amphiphysin I SH3 domain (human) (P49418 622-695): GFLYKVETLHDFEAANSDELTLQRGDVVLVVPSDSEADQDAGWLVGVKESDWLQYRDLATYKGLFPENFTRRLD
Chain of GST-Cdc42 interacting protein 4 (CIP4) SH3 domain (human) (Q15642 540-601): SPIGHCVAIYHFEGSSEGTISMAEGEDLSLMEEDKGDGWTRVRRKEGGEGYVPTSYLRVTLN
Chain of GST-cortactin SH3 domain (mouse) (Q60598 488-546): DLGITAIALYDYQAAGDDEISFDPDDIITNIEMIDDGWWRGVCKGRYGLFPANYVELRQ
Chain of GST-amphiphysin II SH3 domain (human) (O00499 520-593): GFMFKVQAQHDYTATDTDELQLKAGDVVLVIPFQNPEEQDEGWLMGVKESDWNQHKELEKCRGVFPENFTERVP

Substance | rate of dynamin GTPase activity stimulated by the GST-SH3 domain (ELIPA, 30 mM NaCl, basal rate subtracted) (μmoles Pi/mg of dyn/min) [1] | rate of dynamin GTPase activity stimulated by the GST-SH3 domain (ELIPA, 30 mM NaCl, basal rate subtracted) (μmoles Pi/mg of dyn/min) [2] | rate of dynamin GTPase activity stimulated by the GST-SH3 domain (ELIPA, 30 mM NaCl, basal rate subtracted) (μmoles Pi/mg of dyn/min) [3] | rate of dynamin GTPase activity stimulated by the GST-SH3 domain (ELIPA, 30 mM NaCl, basal rate subtracted) (μmoles Pi/mg of dyn/min) [4] | rate of dynamin GTPase activity stimulated by the GST-SH3 domain (ELIPA, 30 mM NaCl, basal rate subtracted) (μmoles Pi/mg of dyn/min) [5] | rate of dynamin GTPase activity stimulated by the GST-SH3 domain (ELIPA, 30 mM NaCl, basal rate subtracted) (μmoles Pi/mg of dyn/min) [6] | rate of dynamin GTPase activity stimulated by the GST-SH3 domain (ELIPA, 30 mM NaCl, basal rate subtracted) (μmoles Pi/mg of dyn/min) [7] | rate of dynamin GTPase activity stimulated by the GST-SH3 domain (ELIPA, 30 mM NaCl, basal rate subtracted) (μmoles Pi/mg of dyn/min) [8] | rate of dynamin GTPase activity stimulated by the GST-SH3 domain (ELIPA, 30 mM NaCl, basal rate subtracted) (μmoles Pi/mg of dyn/min) [9] | rate of dynamin GTPase activity stimulated by the GST-SH3 domain (ELIPA, 30 mM NaCl, basal rate subtracted) (μmoles Pi/mg of dyn/min) [10] | rate of dynamin GTPase activity stimulated by the GST-SH3 domain (ELIPA, 30 mM NaCl, basal rate subtracted) (μmoles Pi/mg of dyn/min) [11] | rate of dynamin GTPase activity stimulated by the GST-SH3 domain (ELIPA, 30 mM NaCl, basal rate subtracted) (μmoles Pi/mg of dyn/min) [12] | rate of dynamin GTPase activity stimulated by the GST-SH3 domain (ELIPA, 30 mM NaCl, basal rate subtracted) (μmoles Pi/mg of dyn/min) [13] | dynamin GTPase activity stimulated by the GST-SH3 domain (ELIPA, 150 mM NaCl) (μmoles Pi/mg of dynamin) [14] | dynamin GTPase activity stimulated by the GST-SH3 domain (ELIPA, 150 mM NaCl) (μmoles Pi/mg of dynamin) [15] | dynamin GTPase activity stimulated by the GST-SH3 domain (ELIPA, 150 mM NaCl) (μmoles Pi/mg of dynamin) [16] | dynamin GTPase activity stimulated by the GST-SH3 domain (ELIPA, 150 mM NaCl) (μmoles Pi/mg of dynamin) [17] | dynamin GTPase activity stimulated by the GST-SH3 domain (ELIPA, 150 mM NaCl) (μmoles Pi/mg of dynamin) [18] | dynamin GTPase activity stimulated by the GST-SH3 domain (ELIPA, 150 mM NaCl) (μmoles Pi/mg of dynamin) [19] | dynamin GTPase activity stimulated by the GST-SH3 domain (ELIPA, 150 mM NaCl) (μmoles Pi/mg of dynamin) [20] | other results
recombinant human dynamin I middle domain splice variant Ibb (enzyme) | 0.011 | 0.019 | 0.098 | 0.056 | 0.013 | 0.102 | 0.016 | 0.075 | 0.017 | 0.036 | 0.02 | 0.041 | 0.068 | < 0.03 | < 0.03 | < 0.03 | < 0.03 | < 0.03 | < 0.03 | < 0.03 | dynamin GTPase activity stimulated by the GST-SH3 domain (ELIPA, 150 mM NaCl) (μmoles Pi/mg of dynamin) [21]: < 0.03; dynamin GTPase activity stimulated by the GST-SH3 domain (ELIPA, 150 mM NaCl) (μmoles Pi/mg of dynamin) [22]: < 0.03; dynamin GTPase activity stimulated by the GST-SH3 domain (ELIPA, 150 mM NaCl) (μmoles Pi/mg of dynamin) [23]: < 0.03; dynamin GTPase activity stimulated by the GST-SH3 domain (ELIPA, 150 mM NaCl) (μmoles Pi/mg of dynamin) [24]: < 0.03
recombinant human dynamin I middle domain splice variant Iab (enzyme) | 0.011 | 0 | 0.084 | 0.032 | 0.01 | 0.03 | 0.032 | 0.026 | 0 | 0.023 | 0.014 | 0.03 | 0.026 | < 0.03 | < 0.03 | < 0.03 | < 0.03 | < 0.03 | < 0.03 | < 0.03 | dynamin GTPase activity stimulated by the GST-SH3 domain (ELIPA, 150 mM NaCl) (μmoles Pi/mg of dynamin) [21]: < 0.03; dynamin GTPase activity stimulated by the GST-SH3 domain (ELIPA, 150 mM NaCl) (μmoles Pi/mg of dynamin) [22]: < 0.03; dynamin GTPase activity stimulated by the GST-SH3 domain (ELIPA, 150 mM NaCl) (μmoles Pi/mg of dynamin) [23]: < 0.03; dynamin GTPase activity stimulated by the GST-SH3 domain (ELIPA, 150 mM NaCl) (μmoles Pi/mg of dynamin) [24]: < 0.03
